Tested on: Escherichia coli TOP10
Test: shrunken log2 fold change of peptide-encoding DNA abundance (4.5 h post-induction vs induction); higher = less antimicrobial activity (less host growth inhibition)
Conditions: time post-induction: 4.5 h; library: site-saturation at positions 5, 18, 19, 20
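Note: peptides expressed intracellularly from a pBAD plasmid library in pooled LB shake-flask culture, induced with 0.3% L-arabinose, DNA abundance read by NGS, three biological replicates, DESeq2 with apeglm shrinkage.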

Sequence: RRIRPRPPRLPRPRPRPLCWPRP
- shrunken log2 fold change: 0.266

Sequence: RRIRGRPPRLPRPRPRPIHKPRP
- shrunken log2 fold change: -0.16

Sequence: RRIRYRPPRLPRPRPRPSEKPRP
- shrunken log2 fold change: -0.116

Sequence: RRIRVRPPRLPRPRPRPAYWPRP
- shrunken log2 fold change: -0.000323

Sequence: RRIRDRPPRLPRPRPRPVDEPRP
- shrunken log2 fold change: -0.023

Sequence: RRIRYRPPRLPRPRPRPERQPRP
- shrunken log2 fold change: -0.01

Sequence: RRIRQRPPRLPRPRPRPSITPRP
- shrunken log2 fold change: -0.731

Sequence: RRIRSRPPRLPRPRPRPPHYPRP
- shrunken log2 fold change: 0.132

Sequence: RRIRHRPPRLPRPRPRPQLNPRP
- shrunken log2 fold change: -0.593

Sequence: RRIRTRPPRLPRPRPRPSKSPRP
- shrunken log2 fold change: -0.437

Sequence: RRIRQRPPRLPRPRPRPYMYPRP
- shrunken log2 fold change: -0.0364

Sequence: RRIRLRPPRLPRPRPRPQDIPRP
- shrunken log2 fold change: 0.133

Sequence: RRIRCRPPRLPRPRPRPRYVPRP
- shrunken log2 fold change: -0.22

Sequence: RRIRTRPPRLPRPRPRPSAHPRP
- shrunken log2 fold change: -0.229

Sequence: RRIRCRPPRLPRPRPRPELCPRP
- shrunken log2 fold change: 0.488

Sequence: RRIRERPPRLPRPRPRPGMHPRP
- shrunken log2 fold change: 0.0491

Sequence: RRIRFRPPRLPRPRPRPVVWPRP
- shrunken log2 fold change: 0.408

Sequence: RRIRDRPPRLPRPRPRPVELPRP
- shrunken log2 fold change: -0.0194

Sequence: RRIRRRPPRLPRPRPRPYSLPRP
- shrunken log2 fold change: -0.0861

Sequence: RRIRRRPPRLPRPRPRPELWPRP
- shrunken log2 fold change: 0.518

Sequence: RRIRLRPPRLPRPRPRPPNEPRP
- shrunken log2 fold change: -0.0407

Sequence: RRIRARPPRLPRPRPRPQIKPRP
- shrunken log2 fold change: 0.048

Sequence: RRIRGRPPRLPRPRPRPWLEPRP
- shrunken log2 fold change: 0.303

Sequence: RRIRVRPPRLPRPRPRPLNTPRP
- shrunken log2 fold change: -0.224

Sequence: RRIRSRPPRLPRPRPRPCSWPRP
- shrunken log2 fold change: -0.0623

Sequence: RRIRERPPRLPRPRPRPTHSPRP
- shrunken log2 fold change: -0.335

Sequence: RRIRFRPPRLPRPRPRPSWLPRP
- shrunken log2 fold change: 0.156

Sequence: RRIRTRPPRLPRPRPRPWPHPRP
- shrunken log2 fold change: -0.091

Sequence: RRIRVRPPRLPRPRPRPWFKPRP
- shrunken log2 fold change: 0.0333

Sequence: RRIRDRPPRLPRPRPRPAYVPRP
- shrunken log2 fold change: -0.00133

Sequence: RRIRTRPPRLPRPRPRPPHWPRP
- shrunken log2 fold change: 0.333

Sequence: RRIRTRPPRLPRPRPRPCEMPRP
- shrunken log2 fold change: 0.0671

Sequence: RRIRHRPPRLPRPRPRPMAEPRP
- shrunken log2 fold change: -0.165

Sequence: RRIRLRPPRLPRPRPRPNGHPRP
- shrunken log2 fold change: -0.0365

Sequence: RRIRRRPPRLPRPRPRPSWRPRP
- shrunken log2 fold change: 0.355

Sequence: RRIRIRPPRLPRPRPRPQVAPRP
- shrunken log2 fold change: -0.333

Sequence: RRIRPRPPRLPRPRPRPYWWPRP
- shrunken log2 fold change: 0.0199

Sequence: RRIRERPPRLPRPRPRPWMYPRP
- shrunken log2 fold change: -0.508

Sequence: RRIRVRPPRLPRPRPRPVLKPRP
- shrunken log2 fold change: -0.193

Sequence: RRIRGRPPRLPRPRPRPSWGPRP
- shrunken log2 fold change: 0.0507

Sequence: RRIRCRPPRLPRPRPRPWMCPRP
- shrunken log2 fold change: -0.851

Sequence: RRIRQRPPRLPRPRPRPVARPRP
- shrunken log2 fold change: 0.0118

Sequence: RRIRARPPRLPRPRPRPPWWPRP
- shrunken log2 fold change: 1.03

Sequence: RRIRNRPPRLPRPRPRPHCFPRP
- shrunken log2 fold change: -0.641

Sequence: RRIRQRPPRLPRPRPRPDVAPRP
- shrunken log2 fold change: -0.116

Sequence: RRIRERPPRLPRPRPRPQTVPRP
- shrunken log2 fold change: 0.136

Sequence: RRIRPRPPRLPRPRPRPQYLPRP
- shrunken log2 fold change: -0.769

Sequence: RRIRNRPPRLPRPRPRPWIHPRP
- shrunken log2 fold change: 0.0731

Sequence: RRIRGRPPRLPRPRPRPIHTPRP
- shrunken log2 fold change: 0.0205

Sequence: RRIRKRPPRLPRPRPRPRPKPRP
- shrunken log2 fold change: 1.03

Sequence: RRIRCRPPRLPRPRPRPAWMPRP
- shrunken log2 fold change: -0.0623

Sequence: RRIRERPPRLPRPRPRPIDHPRP
- shrunken log2 fold change: -0.379

Sequence: RRIRTRPPRLPRPRPRPVCMPRP
- shrunken log2 fold change: -0.17

Sequence: RRIRDRPPRLPRPRPRPTAEPRP
- shrunken log2 fold change: 1.4

Sequence: RRIRVRPPRLPRPRPRPPSMPRP
- shrunken log2 fold change: -0.0312

Sequence: RRIRLRPPRLPRPRPRPVWTPRP
- shrunken log2 fold change: 0.00633

Sequence: RRIRTRPPRLPRPRPRPMMTPRP
- shrunken log2 fold change: 0.0356

Sequence: RRIRNRPPRLPRPRPRPGLKPRP
- shrunken log2 fold change: 0.265

Sequence: RRIRMRPPRLPRPRPRPMNIPRP
- shrunken log2 fold change: -0.198

Sequence: RRIRWRPPRLPRPRPRPCVAPRP
- shrunken log2 fold change: 0.321

Sequence: RRIRDRPPRLPRPRPRPWFVPRP
- shrunken log2 fold change: -0.18

Sequence: RRIRERPPRLPRPRPRPDFDPRP
- shrunken log2 fold change: -0.356

Sequence: RRIRTRPPRLPRPRPRPQKWPRP
- shrunken log2 fold change: -0.147

Sequence: RRIRYRPPRLPRPRPRPLVEPRP
- shrunken log2 fold change: -0.234

Sequence: RRIRVRPPRLPRPRPRPSDMPRP
- shrunken log2 fold change: -0.519

Sequence: RRIRIRPPRLPRPRPRPAQRPRP
- shrunken log2 fold change: 0.0422

Sequence: RRIRPRPPRLPRPRPRPICTPRP
- shrunken log2 fold change: 0.0424

Sequence: RRIRDRPPRLPRPRPRPILGPRP
- shrunken log2 fold change: -0.0116

Sequence: RRIRIRPPRLPRPRPRPYNGPRP
- shrunken log2 fold change: -0.0564

Sequence: RRIRQRPPRLPRPRPRPVETPRP
- shrunken log2 fold change: -0.00674

Sequence: RRIRPRPPRLPRPRPRPSPKPRP
- shrunken log2 fold change: 0.218

Sequence: RRIRIRPPRLPRPRPRPCCLPRP
- shrunken log2 fold change: -0.478

Sequence: RRIRIRPPRLPRPRPRPWCFPRP
- shrunken log2 fold change: -0.596

Sequence: RRIRCRPPRLPRPRPRPPVVPRP
- shrunken log2 fold change: 0.0152

Sequence: RRIRYRPPRLPRPRPRPAYVPRP
- shrunken log2 fold change: -0.296

Sequence: RRIRERPPRLPRPRPRPLSEPRP
- shrunken log2 fold change: 0.0884

Sequence: RRIRNRPPRLPRPRPRPRKIPRP
- shrunken log2 fold change: 0.39

Sequence: RRIRWRPPRLPRPRPRPPEFPRP
- shrunken log2 fold change: 0.094

Sequence: RRIRHRPPRLPRPRPRPHTEPRP
- shrunken log2 fold change: -0.406

Sequence: RRIRNRPPRLPRPRPRPRVRPRP
- shrunken log2 fold change: 0.212

Sequence: RRIRPRPPRLPRPRPRPDEMPRP
- shrunken log2 fold change: 0.377

Sequence: RRIRHRPPRLPRPRPRPKANPRP
- shrunken log2 fold change: 0.174

Sequence: RRIRDRPPRLPRPRPRPQCMPRP
- shrunken log2 fold change: -0.0894

Sequence: RRIRMRPPRLPRPRPRPCCMPRP
- shrunken log2 fold change: -0.167

Sequence: RRIRRRPPRLPRPRPRPHKQPRP
- shrunken log2 fold change: -0.00379

Sequence: RRIRTRPPRLPRPRPRPTRMPRP
- shrunken log2 fold change: 0.196

Sequence: RRIRHRPPRLPRPRPRPLAQPRP
- shrunken log2 fold change: 0.00325

Sequence: RRIRRRPPRLPRPRPRPHTWPRP
- shrunken log2 fold change: 0.0615

Sequence: RRIRVRPPRLPRPRPRPMEAPRP
- shrunken log2 fold change: 0.0665

Sequence: RRIRARPPRLPRPRPRPWNPPRP
- shrunken log2 fold change: 0.126

Sequence: RRIRFRPPRLPRPRPRPAMGPRP
- shrunken log2 fold change: 0.119

Sequence: RRIRTRPPRLPRPRPRPYIIPRP
- shrunken log2 fold change: -0.59

Sequence: RRIRVRPPRLPRPRPRPFMGPRP
- shrunken log2 fold change: -0.334

Sequence: RRIRNRPPRLPRPRPRPRMNPRP
- shrunken log2 fold change: 0.00678

Sequence: RRIRSRPPRLPRPRPRPAACPRP
- shrunken log2 fold change: 0.222

Sequence: RRIRIRPPRLPRPRPRPRHCPRP
- shrunken log2 fold change: 0.0849

Sequence: RRIRIRPPRLPRPRPRPEFIPRP
- shrunken log2 fold change: -0.00702

Sequence: RRIRFRPPRLPRPRPRPPTDPRP
- shrunken log2 fold change: 0.414

Sequence: RRIRWRPPRLPRPRPRPAKAPRP
- shrunken log2 fold change: 0.747

Sequence: RRIRCRPPRLPRPRPRPRNMPRP
- shrunken log2 fold change: 0.0316

Sequence: RRIRRRPPRLPRPRPRPLHEPRP
- shrunken log2 fold change: -0.0162

Sequence: RRIRDRPPRLPRPRPRPVTNPRP
- shrunken log2 fold change: 0.102

Sequence: RRIRKRPPRLPRPRPRPTVEPRP
- shrunken log2 fold change: 0.377

Sequence: RRIRQRPPRLPRPRPRPCCLPRP
- shrunken log2 fold change: -0.0936

Sequence: RRIRERPPRLPRPRPRPKAIPRP
- shrunken log2 fold change: -0.0487

Sequence: RRIRFRPPRLPRPRPRPHMLPRP
- shrunken log2 fold change: 0.798

Sequence: RRIRFRPPRLPRPRPRPMPLPRP
- shrunken log2 fold change: -0.417

Sequence: RRIRNRPPRLPRPRPRPKPIPRP
- shrunken log2 fold change: 0.202

Sequence: RRIRCRPPRLPRPRPRPRPPPRP
- shrunken log2 fold change: 1.49

Sequence: RRIRQRPPRLPRPRPRPSFFPRP
- shrunken log2 fold change: -0.287

Sequence: RRIRSRPPRLPRPRPRPRHYPRP
- shrunken log2 fold change: -0.172

Sequence: RRIRVRPPRLPRPRPRPHIDPRP
- shrunken log2 fold change: -0.15

Sequence: RRIRLRPPRLPRPRPRPIVDPRP
- shrunken log2 fold change: -0.103

Sequence: RRIRERPPRLPRPRPRPLGWPRP
- shrunken log2 fold change: 0.335

Sequence: RRIRFRPPRLPRPRPRPNAIPRP
- shrunken log2 fold change: -0.322

Sequence: RRIRHRPPRLPRPRPRPAAQPRP
- shrunken log2 fold change: -0.0888

Sequence: RRIRMRPPRLPRPRPRPQDCPRP
- shrunken log2 fold change: 0.0414

Sequence: RRIRIRPPRLPRPRPRPIDDPRP
- shrunken log2 fold change: 0.0145

Sequence: RRIRSRPPRLPRPRPRPVANPRP
- shrunken log2 fold change: 0.152

Sequence: RRIRFRPPRLPRPRPRPQSMPRP
- shrunken log2 fold change: -0.434

Sequence: RRIRFRPPRLPRPRPRPTNVPRP
- shrunken log2 fold change: -0.254

Sequence: RRIRKRPPRLPRPRPRPHQGPRP
- shrunken log2 fold change: 0.0968

Sequence: RRIRCRPPRLPRPRPRPHELPRP
- shrunken log2 fold change: -0.336

Sequence: RRIRKRPPRLPRPRPRPAKEPRP
- shrunken log2 fold change: -0.0233

Sequence: RRIRARPPRLPRPRPRPHQNPRP
- shrunken log2 fold change: 0.409
